In publication PMC10325834, “Characteristics of Mycobacterium tuberculosis PtpA interaction and activity on the alpha subunit of human mitochondrial trifunctional protein, a key enzyme of lipid metabolism” (Frontiers in Cellular and Infection Microbiology, 2023):

Target: T1, human mitochondrial trifunctional protein (hTFP α/β) immunopurified from macrophages (human (endogenous in macrophages), UniProt P40939-1 37-763; P55084 34-474, phosphotyrosine: 21% of the immunopurified hTFP is phosphorylated on Tyr (sites not identified))
T1 construct: also called immunopurified hTFP; hTFPα from macrophages; source: endogenous, macrophage extract; immunoprecipitated with anti-TFP monoclonal antibody (ab110302) on beads, eluted with 50 mM citrate pH 2.6
T1 sequence (P40939 37-763, chain 1 of 2): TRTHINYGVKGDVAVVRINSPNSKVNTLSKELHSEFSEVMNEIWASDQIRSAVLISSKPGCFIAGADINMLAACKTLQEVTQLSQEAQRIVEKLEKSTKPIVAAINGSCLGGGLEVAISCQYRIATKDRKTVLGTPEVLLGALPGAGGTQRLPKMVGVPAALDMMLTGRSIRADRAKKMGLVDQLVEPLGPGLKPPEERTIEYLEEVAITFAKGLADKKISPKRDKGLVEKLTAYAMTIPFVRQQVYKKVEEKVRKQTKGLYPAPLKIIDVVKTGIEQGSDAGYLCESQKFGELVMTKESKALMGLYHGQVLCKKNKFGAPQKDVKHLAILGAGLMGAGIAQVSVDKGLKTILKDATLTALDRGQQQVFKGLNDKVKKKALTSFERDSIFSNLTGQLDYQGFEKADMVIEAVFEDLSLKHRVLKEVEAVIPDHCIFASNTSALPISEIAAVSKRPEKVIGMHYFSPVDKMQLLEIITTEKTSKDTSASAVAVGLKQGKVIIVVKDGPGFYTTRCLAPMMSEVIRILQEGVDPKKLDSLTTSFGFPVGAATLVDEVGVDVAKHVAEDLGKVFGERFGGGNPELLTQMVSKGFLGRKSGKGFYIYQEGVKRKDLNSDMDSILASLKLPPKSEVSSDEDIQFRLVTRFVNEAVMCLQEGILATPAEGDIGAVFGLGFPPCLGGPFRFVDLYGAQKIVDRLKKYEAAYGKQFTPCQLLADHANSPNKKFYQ
T1 sequence (P55084 34-474, chain 2 of 2): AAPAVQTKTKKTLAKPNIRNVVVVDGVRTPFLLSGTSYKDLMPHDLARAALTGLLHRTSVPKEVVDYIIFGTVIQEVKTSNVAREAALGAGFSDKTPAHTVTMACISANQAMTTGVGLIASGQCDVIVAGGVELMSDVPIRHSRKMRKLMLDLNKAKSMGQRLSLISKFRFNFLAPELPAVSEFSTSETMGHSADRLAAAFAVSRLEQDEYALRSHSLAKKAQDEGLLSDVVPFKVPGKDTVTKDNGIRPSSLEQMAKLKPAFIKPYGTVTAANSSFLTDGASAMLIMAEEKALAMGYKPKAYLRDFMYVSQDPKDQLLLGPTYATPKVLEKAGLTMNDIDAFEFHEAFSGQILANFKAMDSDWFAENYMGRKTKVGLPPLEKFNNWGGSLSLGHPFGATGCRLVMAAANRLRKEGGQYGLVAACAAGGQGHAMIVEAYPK
Test: SPR
Conditions: both partners purified

B1: Mycobacterium tuberculosis PtpA, recombinant wild type (enzyme)
chain: MSDPLHVTFVCTGNICRSPMAEKMFAQQLRHRGLGDAVRVTSAGTGNWHVGSCADERAAGVLRAHGYPTDHRAAQVGTEHLAADLLVALDRNHARLLRQLGVEAARVRMLRSFDPRSGTHALDVEDPYYGDHSDFEEVFAVIESALPGLHDWVDERLARNGPS
notes: also called rPtpA; PtpA-wt
Binder B1 has a Kd of 310 nM.
